Results: the RNAGym collection of RNA variant scans (doi:10.1073/pnas.2313332121)
Fewer inactive variants are shown than the library holds.

B1: TPR 5TU (parent)
chain: GGAUCUUCUCGAUCUAACAAAAAAGACAAAUCUGCCACAAAGCUUGAGAGCAUCUUCGGAUGCAGAGGCGGCAGCCUUCGGUGGCGCGAUAGCGCCAACGUUCUCAACUAUGACACGCAAAACGCGUGCUCCGUUGAAUGGAGUUUAUCAUG

Variants of: B1
Assay: polymerase ribozyme fitness, log enrichment relative to wild type (log ratio); higher = more active; in vitro selection for triplet polymerase activity
In short: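 One round of in vitro selection, in triplicate, was applied to PCR-built, transcribed mutant libraries of each subunit of a heterodimeric triplet polymerase ribozyme. The steps were annealing with a biotinylated primer, partner subunit and triplets, incubation frozen at −7 °C, gel excision of extended constructs, streptavidin-bead capture and RT-PCR. Fitness is the logarithm, base 2, of genotype enrichment over wild-type enrichment from inverse-variance-weighted replicate averages of Illumina-sequenced inputs and outputs, keeping genotypes with ≥10 input reads and ≥1 read per output.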

| Variant | polymerase ribozyme fitness (log ratio) |
| --- | --- |
| A20U G48C C57G G128A | ≤ -4.2 |
| A21U U55A C93G A97U A115U | ≤ -4.2 |
| A21C A26C C27U U44G A52G G58C U90A G92A G100U | ≤ -4.2 |
| A21U C85U G124A G126A G136A | -3.04 |
| A21U C75G | -4.03 |
| A20U A26C G84U C103G A106C C108G | ≤ -4.2 |
| A21G G50U G92U A147C | -0.875 |
| A19U U55A C63A A142U U148C | ≤ -4.2 |
| A19U U53A C85A | -3.78 |
| A20C A28U C93U C129U G143A | ≤ -4.2 |
| A21U G50C G84U | -4.11 |
| A21C C36A C95G | -3.86 |
| A20C C36U A47C | -1.91 |
| A21G A49G C63G C96U A98U C125G | -0.663 |
| A21C A23G C85G G141C | -3.89 |
| A20U C87G A91U | ≤ -4.2 |
| A21U C76G | ≤ -4.2 |
| A21G C116G U144G | 1.13 |
| A21U C75G G86A U101C | -4.03 |
| A20C A22C C43U G83C | ≤ -4.2 |
| A21G C132G | -3.9 |
| A21U A23U C54U G58A G92U | ≤ -4.2 |
| A21U A29C C95A U101G G126C U135G G143U | ≤ -4.2 |
| A20G G83A C129G | -3.83 |

| Variant | polymerase ribozyme fitness (log ratio) |
| --- | --- |
| A20C A41U G59A A60U C69G G86A C103G | ≤ -4.2 |
| A21G C54A G83U C87A C96U A122C | ≤ -4.2 |
| A21G A29G G83C A98U | ≤ -4.2 |
| A21U C32A G58C | ≤ -4.2 |
| A20C G83C C96G | -1.83 |
| A19U U53C C87G | ≤ -4.2 |
| A20C A52U G68C G84A U134C | ≤ -4.2 |
| A21G G42A A49C A66U U82C C87U U135G U145A U148A | ≤ -4.2 |
| A20C A97G | -0.83 |
| A21U A52G A66C G128A | ≤ -4.2 |
| A20U A41U C63A A106G U145A | -2.83 |
| A21C C93A | -2.02 |
| A21C C72G G124C | ≤ -4.2 |
| A20C U31C A41C U55A C79A C99A C125G | ≤ -4.2 |
| A21U A23G A26G G84U G86U G136U U148G | ≤ -4.2 |
| A20C C36A C51U U55G C69G A73U G81A C96U G141U | ≤ -4.2 |
| A21C C63U A73C C95A A98U | -3.29 |
| A21G G88A U90C U127C U135G C149U | ≤ -4.2 |
| A21C C72G A73U C93U C99G G126U | ≤ -4.2 |
| A20U A40C G94A A115U A119C | -3.89 |
| A21C G50C G74A C87G U109G | ≤ -4.2 |
| A20U G50C G58U C79G G84U U90G A107G C108G | ≤ -4.2 |
| A20U A26G C27A C36U C93U A147U | ≤ -4.2 |
| A21G G46C U82G G88U C95G A98C | ≤ -4.2 |

| Variant | polymerase ribozyme fitness (log ratio) |
| --- | --- |
| A21C A24U G46U C57U C93U | -1.65 |
| A20U G59A G88A C95G U151A | ≤ -4.2 |
| A21C C69A | -1.75 |
| A20G A26U | -2.24 |
| A21U C51U A106U | -2.08 |
| A21G G42A G50C C93G G136U | ≤ -4.2 |
| A20C A52G C79A G133C U146G | ≤ -4.2 |
| A20C G50C U55G C105U | ≤ -4.2 |
| A20U A41G A49U A52C G86C C96G | ≤ -4.2 |
| A21C C75G C96G C131G | -4.13 |
| A20U C54A A66U U77C C116G C125A U148C | ≤ -4.2 |
| A20U U33C G71C G92U C96G A119U C125A | ≤ -4.2 |
| A21U U61A G88A | ≤ -4.2 |
| A20G C96U | -0.654 |
| A21U C95U C99U | -0.768 |
| A20C C87A | ≤ -4.2 |
| A20C C87U | -1.36 |
| A20G A22C G25C C57A G92A C99U C108A | ≤ -4.2 |
| A20C G84U | -3.03 |
| A21C G50A A122U | -1.39 |
| A21U A49G A98G | -0.555 |
| A20G G25C G58C A106U | -3.93 |
| A21U A23U A24C C54U G81A C85U | ≤ -4.2 |
| A20C A39C A40G G84U G88U C93A C96A | ≤ -4.2 |

| Variant | polymerase ribozyme fitness (log ratio) |
| --- | --- |
| A19U U33A G34A C79A C118U C125A C132U G133A A142C U148G | ≤ -4.2 |
| A21C C32G A37U A49G C57U C75G G84A A107C A147U | ≤ -4.2 |
| A20U U33C G71A U104A A106G A107G A137C | ≤ -4.2 |
| A20G U33A U55G C87A G140C | ≤ -4.2 |
| A21U C96U C108U C132A | ≤ -4.2 |
| A20C A41U G68C G83A G100U A115G C116U C123G | ≤ -4.2 |
| A21G G83C U90C U146A A150C | ≤ -4.2 |
| A21U A73G C129G | -3.49 |
| A21U A29U A66U C76A C93G | ≤ -4.2 |
| A21C C32G C43U C57A G71U C85A G88C A91C A147U | ≤ -4.2 |
| A20C C32G G59C C85U C95G A97G G140A U151C | ≤ -4.2 |
| A20G A21C G92A C108G | ≤ -4.2 |
| A21U C85A A97U | -2.01 |
| A20U A40C G80U G83A C99U G133U A142G U145C | ≤ -4.2 |
| A21C U61A A89U U90G G100U G136A A138C U144G | ≤ -4.2 |
| A21U G84U | -1.29 |
| A20C G50A C76G G80C A91U A98G | ≤ -4.2 |
| A21U C57A A89U | -0.571 |
| A21G C57A G81C A97G U101C U135C | -1.99 |
| A20C U55A A89G G94C C95A C108G C123G | ≤ -4.2 |
| A21U A29C A30C A39G U44A A49C U53A G68A C105U | ≤ -4.2 |
| A20G G59C G94C | -0.672 |
| A21C C96U A122C | -0.0635 |
| A21U G48C G83A C118G U145A | -2.76 |

| Variant | polymerase ribozyme fitness (log ratio) |
| --- | --- |
| A20G G117A | -0.0564 |
| A21U A23U A24C C54U G81A C85U A147C | ≤ -4.2 |
| A20G A21C G94A U146G | -0.812 |
| A21U C96G G143U | -3.69 |
| A21U A41G | 1.06 |
| A19U G143U | -2.25 |
| A21U A28C U31G A47G C85U C116G C129A G133A | ≤ -4.2 |
| A21G A91G A115U C116A | -3.91 |
| A20C A41C U55C C93G C99U U102G | ≤ -4.2 |
| A21G G25C G34A A49G C72U G92C G112U | ≤ -4.2 |
| A20C G94U G152C | -2.76 |
| A20U A49C G50C G92U U146G C149U | ≤ -4.2 |
| A21U A60G | 0.987 |
| A20G A40C A49C G50A G65C G68A C87U G124U | ≤ -4.2 |
| A21C A29U C43A U55A G83A A107C | ≤ -4.2 |
| A20U A60C A73G | -2.81 |
| A21G A24U U53A G94A | -0.529 |
| A21U C96A G136A | 0.203 |
| A21G C27G U33C G62U G81U C96U C105A A113U A122U | ≤ -4.2 |
| A20U U33G G42U C63G G71A A113G | ≤ -4.2 |
| A20U G67C | ≤ -4.2 |
| A21U A39C U90C C95U A97U | ≤ -4.2 |
| A21U C51U G126U | 0.375 |
| A20U G50A C85U | -3.83 |

| Variant | polymerase ribozyme fitness (log ratio) |
| --- | --- |
| A20C A113U U127A | ≤ -4.2 |
| A21C G59A A113G | -1.92 |
| A20C A21U U55A G59C C85A G126U | -0.602 |
| A20C U53A G84A | -1.69 |
| A20G U53A | -1.01 |
| A20U A29G A52G A89U C96A | ≤ -4.2 |
| A21U U56A G140A G141A | -4.17 |
| A21U C63U G84A | -0.545 |
| A21U A37C A49G A52U A91C | ≤ -4.2 |
| A20C U61G | -1.36 |
| A21U U31A C85A | -0.251 |
| A21C C43A | ≤ -4.2 |
| A21U C38A G50C U55G C69A C76A G80A U90G | ≤ -4.2 |
| A21U A30G | -3.62 |
| A20C A115U | -2.36 |
| A20C C54U G70C C93A | ≤ -4.2 |
| A21U A26G G86U C118U | ≤ -4.2 |
| A21C U53G C87A C95A C149G | ≤ -4.2 |
| A20C A47U U101A A122U | -0.358 |
| A21U A29C G92A C99U G117U U130G | -3.76 |
| A20C G48U G59A A119U U135A U146C | -2.07 |
| A21C U90A G94C | ≤ -4.2 |
| A21U A47G C54U G81C G92A C95A C99U | -3.94 |
| A21U A60C C87A A98G G100C | ≤ -4.2 |

| Variant | polymerase ribozyme fitness (log ratio) |
| --- | --- |
| A21U C36A G50U U55A C57G G62A G68U C85G C103A G128A | ≤ -4.2 |
| A21U U82C | 0.17 |
| A21U C43U C99G A120G G126U | ≤ -4.2 |
| A20U A41C G50A G141A | -4.03 |
| A20U C54A U56A G84C G86C C96U G117C A122U U144A A150G | ≤ -4.2 |
| A20U A29G G46C G50C A66U G83A | ≤ -4.2 |
| A21C A26C C85U A89C G136A G141A | -4.04 |
| A21U G141A | 1.36 |
| A21U G34A G83C | -2.46 |
| A21G A26C A66U C87G A115C U134C U146A | ≤ -4.2 |
| A21C U61G C85U | 0.133 |
| A21U U55A | -0.879 |
| A21G C27G C114U U135G U146A U148G | ≤ -4.2 |
| A21G G58A A122U U145G | 0.687 |
| A20G A30U C63A C87U U146C | ≤ -4.2 |
| A20U G65C C85U A106U | ≤ -4.2 |
| A20C C57U G59C G62C G124A | -0.9 |
| A21C U56A | -0.39 |
| A21C A52G C103G | -1.21 |
| A20U A21U A37C C96A A121G | -1.8 |
| A20U G81A A89G C93U C129U | -3.56 |
| A21G A52C C75G C85U A89G C96G A150G | -3.89 |
| A20U A113U | -3.74 |
